Source: patent US9512195B2, “Insulin derivatives containing additional disulfide bonds” (Novo Nordisk A/S, priority 2010, dated 2016)

Molecular target: T1, human insulin receptor (human IR-A) (Homo sapiens, UniProt P06213)
T1 construct: solubilized human IR (holoreceptor); expressed in transfected cells; host or cells: baby hamster kidney (BHK) cells, stably transfected (pZem vector); detergent-solubilised and semipurified on wheat germ agglutinin
Experiment: Insulin receptor binding assay (SPA, on solubilised insulin receptor)
Settings: comparison table of side chain and parent insulin mutations (rel. to HI)
Experimental: Insulin Receptor Binding Assay (on Solubilised Insulin Receptor)
Competition binding experiments were performed in 96-well plates (polystyrene Optiplate-96, PerkinElmer) on an Eppendorf epMotion 5075 robot using solubilized human IR (holoreceptor) semipurified by wheat germ agglutinin purification from baby hamster kidney (BHK) cells, which were stably transfected with the pZem vector containing the human IR-A or IR-B insert.

T1 sequence (P06213 28-746 isoform P06213-2 limits assumed): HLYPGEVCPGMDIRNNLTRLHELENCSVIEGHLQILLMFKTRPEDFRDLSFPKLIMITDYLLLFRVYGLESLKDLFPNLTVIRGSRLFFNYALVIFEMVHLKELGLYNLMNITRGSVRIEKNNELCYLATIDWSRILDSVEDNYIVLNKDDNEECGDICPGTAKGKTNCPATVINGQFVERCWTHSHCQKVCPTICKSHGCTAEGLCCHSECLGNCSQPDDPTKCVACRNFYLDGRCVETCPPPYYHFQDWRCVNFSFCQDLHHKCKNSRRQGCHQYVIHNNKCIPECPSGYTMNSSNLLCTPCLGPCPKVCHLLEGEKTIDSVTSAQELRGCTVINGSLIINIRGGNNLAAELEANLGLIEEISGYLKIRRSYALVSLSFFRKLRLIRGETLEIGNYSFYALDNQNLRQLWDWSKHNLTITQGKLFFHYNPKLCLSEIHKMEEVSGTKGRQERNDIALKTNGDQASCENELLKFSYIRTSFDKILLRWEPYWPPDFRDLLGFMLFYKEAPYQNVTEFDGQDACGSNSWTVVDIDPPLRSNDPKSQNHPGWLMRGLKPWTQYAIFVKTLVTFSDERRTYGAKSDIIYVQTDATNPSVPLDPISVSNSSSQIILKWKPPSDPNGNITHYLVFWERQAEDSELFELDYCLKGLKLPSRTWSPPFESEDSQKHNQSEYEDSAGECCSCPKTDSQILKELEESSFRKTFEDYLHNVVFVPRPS
T1 sequence (P06213 763-1382 partner limits assumed): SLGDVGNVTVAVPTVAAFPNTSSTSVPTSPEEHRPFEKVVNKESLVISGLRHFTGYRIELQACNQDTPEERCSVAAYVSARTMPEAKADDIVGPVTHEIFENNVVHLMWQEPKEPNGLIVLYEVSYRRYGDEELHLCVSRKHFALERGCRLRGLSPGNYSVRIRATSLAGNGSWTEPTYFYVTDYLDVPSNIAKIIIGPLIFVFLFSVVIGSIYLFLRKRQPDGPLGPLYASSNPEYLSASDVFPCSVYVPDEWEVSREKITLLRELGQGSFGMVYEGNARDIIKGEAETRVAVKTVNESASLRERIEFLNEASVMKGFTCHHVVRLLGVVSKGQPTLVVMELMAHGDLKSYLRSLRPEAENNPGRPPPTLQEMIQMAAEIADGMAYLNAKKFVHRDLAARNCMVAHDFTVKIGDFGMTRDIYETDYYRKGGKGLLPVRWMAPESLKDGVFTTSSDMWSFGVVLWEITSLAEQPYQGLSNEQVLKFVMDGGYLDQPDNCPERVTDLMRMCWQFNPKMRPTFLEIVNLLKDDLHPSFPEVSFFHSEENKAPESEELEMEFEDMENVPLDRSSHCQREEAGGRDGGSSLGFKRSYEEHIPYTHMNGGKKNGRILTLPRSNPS

## C18-gGlu- desB30: desB30 human insulin with side chain C18-gGlu- (cell cut off), no additional disulfide bond
0% HSA
  Relative IR-A affinity SPA assay (@ 0% HSA): 10.4
[…] (HSA)
  Relative IR-A affinity SPA assay (@ […]: 0.70
